Here are results for three molecules from patent US20230071609A1 (Genentech, published 2023).

The target in assay [1] is T1, untagged APOL1-G0, KIK variant, transiently expressed (COS cells) (human, UniProt O14791 29-398).
T1 construct: Origene SC109941 clone with E150K, M228I, R255K
T1 chain: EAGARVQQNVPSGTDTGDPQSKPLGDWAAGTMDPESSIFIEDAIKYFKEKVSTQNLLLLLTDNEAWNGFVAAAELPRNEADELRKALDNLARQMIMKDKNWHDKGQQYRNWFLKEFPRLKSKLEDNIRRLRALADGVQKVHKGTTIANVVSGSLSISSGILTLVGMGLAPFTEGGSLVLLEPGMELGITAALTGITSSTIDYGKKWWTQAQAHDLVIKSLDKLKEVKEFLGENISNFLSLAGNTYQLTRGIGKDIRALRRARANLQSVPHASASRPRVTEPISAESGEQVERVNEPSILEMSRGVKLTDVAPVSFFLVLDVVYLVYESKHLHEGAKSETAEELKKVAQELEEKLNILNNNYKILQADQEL
In words: immunofluorescence on transfected COS cells, 1 µg/ml; grade.

Assay [2] concerns the target T2, gD-SRA-ID-GPI (construct e) (human, UniProt O14791 305-398, C-terminal GPI anchor).
T2 sequence: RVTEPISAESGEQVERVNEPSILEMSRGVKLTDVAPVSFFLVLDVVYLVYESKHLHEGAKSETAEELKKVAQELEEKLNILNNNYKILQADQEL
As to the kind of experiment: flow cytometry, live CHO cells; 3.3A8 is the representative for the C-terminus of MAD. Here is the method: (§1) Stably transfected live (not fixed or permeabilized) CHO cells expressing the gD-iAPOL1-GPI constructs indicated in FIGS. 1A-1E after induction with 5 μg/ml dox for 48 h, showing differential antibody binding at 5 μg/ml. […] White histograms are Alexa488 anti-mouse or anti-rabbit secondaries only; grey histograms are the anti-APOL1 signals. A representative histogram for each category is shown: 3.7D6 for PFD; 3.3A8 for C-terminus of MAD, 3.5H9 for N-terminus of MAD; 3.1C1 for SRA-ID; 3.2D4 for multi-domain; 3.3F7 for conformational and 3.5B10 for FACS-negative (FACS-ve). The prefix 3 in the name of the antibodies denotes murine monoclonals from Method #3 (as shown in Example 1 below); other antibodies (not illustrated here) starting with the number 4 are murine monoclonals derived from mice additionally boosted with SRA-ID protein; and prefix 5-named antibodies are rabbit monoclonals from Method #5 (Table 2A; and Example 2). […] The Sigma polyclonal (HPA018885, raised to aa 263-387) and the Epitomics rabbit monoclonal (EPR2907(2), raised to an undisclosed peptide) are SRA-ID binders. […]
(§2) Cells were harvested with 5 mM EDTA in PBS, washed once with growth media and twice with PBS. […] Signals were read in a FACSCalibur3 (Becton Dickinson), with the exception of FIG. 8A and FIG. 14, which used a FACSCelesta, and data was analyzed using FlowJo v8.4.5.
A general note: In flow cytometry, cells or beads pass a laser one at a time.

Assay [3] addresses T3, circulating APOL1 in normal human serum (human, UniProt O14791 28-398).
T3 sequence (looked up): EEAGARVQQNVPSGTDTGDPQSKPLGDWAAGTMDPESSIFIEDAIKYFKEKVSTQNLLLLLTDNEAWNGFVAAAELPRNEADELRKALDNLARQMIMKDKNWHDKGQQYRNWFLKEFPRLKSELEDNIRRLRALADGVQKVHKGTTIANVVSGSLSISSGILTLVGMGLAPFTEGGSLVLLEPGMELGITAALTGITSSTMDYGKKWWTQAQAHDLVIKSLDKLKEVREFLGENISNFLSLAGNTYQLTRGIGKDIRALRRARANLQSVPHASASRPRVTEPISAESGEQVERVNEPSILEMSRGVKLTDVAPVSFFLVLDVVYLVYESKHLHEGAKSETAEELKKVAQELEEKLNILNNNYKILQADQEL
As to the kind of experiment: cell-based or functional assay.

Another assay concerns the target T4, APOL6-myc-FLAG (human, UniProt Q9BWW8 1-343).
T4 construct: whole, on cells; In fixed, permeabilized transfected COS cells; untagged APOL6 in the western blots; not shown: C-terminal myc-FLAG tag
T4 sequence (looked up): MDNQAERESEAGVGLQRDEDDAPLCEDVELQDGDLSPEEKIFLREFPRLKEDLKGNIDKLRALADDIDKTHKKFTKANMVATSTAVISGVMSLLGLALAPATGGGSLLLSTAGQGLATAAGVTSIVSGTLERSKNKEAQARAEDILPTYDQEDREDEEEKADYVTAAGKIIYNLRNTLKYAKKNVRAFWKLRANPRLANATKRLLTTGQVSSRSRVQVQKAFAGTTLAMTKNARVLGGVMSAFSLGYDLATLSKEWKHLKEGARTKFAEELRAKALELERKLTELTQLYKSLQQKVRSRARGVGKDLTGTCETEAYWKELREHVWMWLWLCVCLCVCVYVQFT
In words: immunofluorescence on transfected COS cells; grade. The text has this: COS cells were transfected as in FIG. 31A except APOL1 and APOL2 were also C-terminally myc-FLAG tagged. Overlays of APOL with epitope tags: either mouse anti-FLAG-M2 or mouse anti-myc 9E10 for anti-APOL1 rabmabs; or rabbit anti-Myc 71D10 in conjunction with mouse anti-APOL1. Signals indicate the two antibodies overlap (i.e. anti-APOL1 cross-reacts with that APOL); signals (epitope tag only) indicate no cross-reactivity. Alexa647 anti-rabbit or mouse were used for the tags to rule out the possibility that any colocalization was a bleed-through artifact. Sparsely transfected areas were imaged to permit evaluation of background staining in adjacent untransfected cells—DAPI nuclear staining identifies both untransfected and transfected cell nuclei. […] Note that none of the antibodies cross-reacted with the more distantly related APOL6. *, APOL2-myc-FLAG is presumably misfolded, since it is not as cross-reactive as untagged APOL2 (compare FIG. 31A) with several antibodies. Commercial antibodies are Sigma HPA018885, Epitomics EPR2907 (2) (Epito) and Proteintech 11486-2-AP (Ptech).
Cells were plated on LabTekII (Nalge Nunc 154534) slides and fixed at 70-100% confluency. For mAb screening, cells were fixed/permeabilized for 5 min in −20° C. methanol (EMD MX0485-6). For all other experiments, cells were fixed in 3% paraformaldehyde in PBS (EMS 15710) for 20 mins at room temperature, quenched with 50 mM NH₄Cl in PBS for 10 mins, then permeabilized with 0.1% TX-100 in PBS for 4 mins or for 1h in saponin buffer [0.4% saponin (Sigma S7900), 1% bovine serum albumin (BSA; Sigma A2153), 2% fetal bovine serum (Seradigm) in PBS]. First antibodies (stored sterile at 4° C.) were applied for 1 h at room temperature, at 1 μg/ml for screening on transfected cells or at subsequently optimized concentrations for detecting endogenous APOL1. After 3×10 min washes in PBS (for Methanol or TX-100 protocols) or saponin buffer (saponin protocol), secondary antibodies were applied at 1.88 μg/ml for 1 h at room temperature, washed 3× and mounted under No. 1.5 coverslips in ProLong Gold with DAPI (4′,6-diamidino-2-phenylindole; Life Technologies P36931).

Assay [4] concerns the target T5, gD-PFD-MAD-GPI (construct c) (human, UniProt O14791 61-305, C-terminal GPI anchor).
T5 sequence: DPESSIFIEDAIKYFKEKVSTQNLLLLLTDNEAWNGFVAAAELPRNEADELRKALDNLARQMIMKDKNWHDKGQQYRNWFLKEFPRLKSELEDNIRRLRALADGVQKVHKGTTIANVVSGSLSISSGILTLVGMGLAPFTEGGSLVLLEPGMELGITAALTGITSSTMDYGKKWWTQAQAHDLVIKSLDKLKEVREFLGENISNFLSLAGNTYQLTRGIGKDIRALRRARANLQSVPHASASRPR
In words: flow cytometry, live CHO cells; conformational = only bound to full length APOL1, but not individual domains. Here is the method: (§3) Stably transfected live (not fixed or permeabilized) CHO cells expressing the gD-iAPOL1-GPI constructs indicated in FIGS. 1A-1E after induction with 5 μg/ml dox for 48 h, showing differential antibody binding at 5 μg/ml. […] White histograms are Alexa488 anti-mouse or anti-rabbit secondaries only; grey histograms are the anti-APOL1 signals. A representative histogram for each category is shown: 3.7D6 for PFD; 3.3A8 for C-terminus of MAD, 3.5H9 for N-terminus of MAD; 3.1C1 for SRA-ID; 3.2D4 for multi-domain; 3.3F7 for conformational and 3.5B10 for FACS-negative (FACS-ve). The prefix 3 in the name of the antibodies denotes murine monoclonals from Method #3 (as shown in Example 1 below); other antibodies (not illustrated here) starting with the number 4 are murine monoclonals derived from mice additionally boosted with SRA-ID protein; and prefix 5-named antibodies are rabbit monoclonals from Method #5 (Table 2A; and Example 2). […] The Sigma polyclonal (HPA018885, raised to aa 263-387) and the Epitomics rabbit monoclonal (EPR2907(2), raised to an undisclosed peptide) are SRA-ID binders. Successful APOL1 surface expression of each construct was confirmed with the anti-gD epitope tag (gD-tag) antibody (to Herpes Simplex Virus glycoprotein D).
(§4) Cells were harvested with 5 mM EDTA in PBS, washed once with growth media and twice with PBS. Approximately 0.5×10⁶/m1 of cells resuspended in PBS were incubated with anti-APOL1 antibodies for 1 h on ice. Following two PBS washes, 2 μg/ml of Alexa488 anti-mouse or anti-rabbit (Invitrogen A11029 and A21206, respectively) was used for 1 h on ice for detection. Cells were washed twice in PBS and resuspended in PBS with 1 μg/ml propidium iodide. Signals were read in a FACSCalibur3 (Becton Dickinson), with the exception of FIG. 8A and FIG. 14, which used a FACSCelesta, and data was analyzed using FlowJo v8.4.5.

Assay [5] addresses T2, gD-SRA-ID-GPI (construct e). The description is as above. The protocol: as §3, §4
Assay [6] deals with T6, gD-MAD-SRA-ID-GPI (construct d) (human, UniProt O14791 238-398, C-terminal GPI anchor).
T6 sequence: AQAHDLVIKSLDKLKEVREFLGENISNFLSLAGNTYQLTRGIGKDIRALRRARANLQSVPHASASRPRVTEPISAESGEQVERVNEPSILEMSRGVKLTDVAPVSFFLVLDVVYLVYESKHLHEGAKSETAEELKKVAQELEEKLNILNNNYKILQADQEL
The description is as above. The protocol: as §3, §4

Assay [7] has as its target T7, gD-iAPOL1-GPI (construct b, aa 61-398) (human, UniProt O14791 61-398, C-terminal GPI anchor).
T7 construct: Stably expressed on CHO cells under a doxycycline-inducible promoter; also called gD-APOL1-GPI; gD-APOL1-G0-GPI
T7 sequence: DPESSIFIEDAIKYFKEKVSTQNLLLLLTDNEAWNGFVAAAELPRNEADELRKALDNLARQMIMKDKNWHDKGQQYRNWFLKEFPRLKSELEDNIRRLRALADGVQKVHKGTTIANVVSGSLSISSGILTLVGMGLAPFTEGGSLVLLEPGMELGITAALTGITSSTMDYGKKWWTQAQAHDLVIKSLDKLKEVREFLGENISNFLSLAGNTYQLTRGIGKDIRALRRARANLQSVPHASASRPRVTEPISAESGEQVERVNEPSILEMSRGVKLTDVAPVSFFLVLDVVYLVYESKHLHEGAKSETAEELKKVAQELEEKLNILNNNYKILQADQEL
In words: flow cytometry, live CHO cells, 5 µg/ml; conformational = only bound to full length APOL1. The protocol:
as §1, §2

Assay [8] deals with T3, circulating APOL1 in normal human serum. In words: immunoprecipitation from normal human serum with Dynabead-conjugated antibody. The protocol: FIGS. 17A-17C show immunoprecipitation of APOL1 from NHS with a different set of APOL1 antibodies. FIG. 17A show as in FIG. 5D that all the blocking antibodies could immunoprecipitate APOL1, except the conformational antibody 3.7F5 (SEQ ID NOS: 203-212), which is also a poor blocker.
Anti-APOL1 antibodies were conjugated to Dynabeads (ThermoFisher 14311D) as per the manufacturer's protocol. Briefly, 10 μg of each antibody was conjugated to 2 mg of Dynabeads overnight at 37° C. with rotation. Next day, unbound antibody was washed off and conjugated antibody was resuspended at a final concentration of 50 μg/ml. 2-5 μg of the conjugated antibody was incubated with 1 μl of undiluted human serum at 4° C. for 16 h in a total volume of 500 μl with PBS. Unbound serum was washed with 150 mM NaCl in PBS. Bound APOL1 was eluted with low pH glycine buffer (this was preferable to direct boiling to avoid elution of non-specifically bound proteins). Eluates were boiled in 5× sample buffer (Invitrogen 39000) and loaded on 4-12% Bis-Tris gels (Invitrogen NP03220). Immunoprecipitated APOL1 was detected by rabbit polyclonal APOL1 antibody (Proteintech 11486-2-AP, 1:1000) and ECL. APOA1 was detected with goat anti-APOA1 (Rockland 600-101-109), HPR was detected with 1 μg/ml rabbit anti-HPR (Millipore ABS 196) and ECL Prime. […]

B1: antibody 3.3A8 (antibody, V domains shown)
VH: QVQFQQSGAELVRPGASVKVTCKALGYTFSNYEIHWVRQPPVHGLEWIGAIHPGNGVTAYNQMFKGRATLAADKSSSTAYMELSSLTSEDSAVYYCTENFDYWGQGTALTVSS
VL: DVVVTQTPLSLPVSFGDQVSISCRSSQSLTNSYGITYLSWFLLKPGQSPQLLIYEISNRFSGVPDRFSGSGSGTDFTLKISTIKPEDLGVYFCLQGTHQPFTFGAGTKLEIKR
notes: Mouse mAb, cloned as murine IgG2a LALAPG; also called MAD antibody 3.3A8
As to B1, the binding result in assay [1] is “binds”; in assay [2], “no binding (tested: 5 µg/ml)”; with APOL6-myc-FLAG, “no binding (tested: 1 µg/ml)”. Moreover, the “IC50 of blocking of serum APOL1-mediated trypanolysis (Alamar Blue)” value in assay [3] turned out to be 0.4 nM.

B2: antibody 3.3F7 (antibody, V domains shown)
VH: QVQLKQSGPSLVQPSQSLSITCTVSGFSLTTYGVHWVRQSPGKGLEWLGVIWRGGNTDYNAAFMSRLSITKDNSQSQVFFKMNSLQADDTAIYYCAKSSYGYHYTMDYWGHGTSVTVSS
VL: DIVVTQSHRFMSTSVGDRVIITCKASQNVGTAVAWYQQKPGQSPKLLIYWASTRHTGVPDRFTGSGSGTDFTLTISNVQSEDLADYFCQRYNNFPFTFGSGTKLEIKR
notes: Mouse mAb, cloned as murine IgG2a LALAPG
Take B2: the binding result in assay [4] is “no binding (tested: 5 µg/ml)”; in assay [5], “no binding (tested: 5 µg/ml)”; in assay [6], “no binding (tested: 5 µg/ml)”; in assay [7], “binds”.

B3: antibody 3.7F5 (antibody, V domains shown)
VH: EIHLQQSGPEVVQPGASLKVSCKASDYSFTDYNVFWVKQSHGKSLEWIAYIDPYNGATSYNQKFKDKATLTVDKSSSTAFMYLNSLTSEDSAVYYCARGTVRAFFDSWGQGTTLTVSS
VL: DIVMSQSPSSLVVSVGEKVSLSCKSSQSLLYRNDQINYLAWYQQKPGQSPKLLIFWASTRESGVPVRFTGSGSGTDFTLNINTVKAEDLAVYYCQQYYSYPPTFGTGTKLEIKR
notes: Mouse mAb, cloned as murine IgG2a LALAPG; also called conformational antibody 3.7F5
As for B3, the binding result in [8] is given as “no binding”.
